Measurements reported in publication PMC10140047.

Key:
[1] = target: RanBP2/NUP358 BICD2 Binding Domain (BBD), 2147-2287 (UniProt P49792); assay: GST pull-down with purified proteins; conditions: reference: wild type; sites S102
[2] = target: PLK1 PBD, 354-603 (Methods: 345-603) (UniProt P53350); assay: GST-PBD pull-down from cell extracts; conditions: reference: wild type; sites T319,S320,T321
PLK1 = PLK1 (UniProt P53350); assay: anti-GFP IP, PLK1 blot; conditions: reference: wild type, sites T319,S320,T321
[3] = target: dynein (cytoplasmic dynein-1, endogenous, detected by its intermediate chain DIC) (human (endogenous in HeLa)) (UniProt Q13409)
Sequence of dynein (cytoplasmic dynein-1, endogenous, detected by its intermediate chain DIC) (human (endogenous in HeLa)) (Q13409 whole entry, looked up): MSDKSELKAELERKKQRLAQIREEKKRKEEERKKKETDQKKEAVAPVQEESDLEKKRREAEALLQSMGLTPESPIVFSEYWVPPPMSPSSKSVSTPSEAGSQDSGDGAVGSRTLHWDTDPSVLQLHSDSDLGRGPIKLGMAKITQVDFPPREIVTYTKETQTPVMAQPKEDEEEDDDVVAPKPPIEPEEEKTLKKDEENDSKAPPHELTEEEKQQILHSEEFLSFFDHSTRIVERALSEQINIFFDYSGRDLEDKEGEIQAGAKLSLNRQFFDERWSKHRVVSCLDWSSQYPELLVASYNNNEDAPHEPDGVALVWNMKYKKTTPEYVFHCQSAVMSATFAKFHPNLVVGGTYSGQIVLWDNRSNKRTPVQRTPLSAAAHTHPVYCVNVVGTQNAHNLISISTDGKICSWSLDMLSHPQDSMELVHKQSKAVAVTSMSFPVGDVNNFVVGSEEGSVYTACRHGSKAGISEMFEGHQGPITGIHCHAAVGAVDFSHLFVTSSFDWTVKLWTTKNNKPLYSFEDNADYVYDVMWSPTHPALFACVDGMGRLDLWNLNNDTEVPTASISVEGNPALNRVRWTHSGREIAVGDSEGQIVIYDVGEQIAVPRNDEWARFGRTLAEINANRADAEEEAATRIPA

[4] = target: GST-RanBP2 BBD phosphorylated by CDK1/cyclin B (human) (UniProt P49792); assay: pull-down; GST-RanBP2 BBD on GSH agarose beads, untreated or pre-phosphorylated by CDK1/cyclin B1, incubated 90 min at RT with purified TwinStrep-BICD2 in Binding Buffer (50 mM Tris pH 7.4, 125 mM NaCl, 5 mM EDTA, 0.1% NP40); blot with anti-BICD2
Sequence of GST-RanBP2 BBD phosphorylated by CDK1/cyclin B (human) (P49792 2147-2287): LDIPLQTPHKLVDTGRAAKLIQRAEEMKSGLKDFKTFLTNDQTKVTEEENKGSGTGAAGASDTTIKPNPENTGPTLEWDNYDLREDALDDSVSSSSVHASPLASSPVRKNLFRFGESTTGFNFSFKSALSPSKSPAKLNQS

BICD2 (mouse, recombinant) (from UniProt Q921C5) S102D
fold change [1]: 12

BICD2 (mouse, recombinant) (from UniProt Q921C5) T319A/S320A/T321A
binding against the reference [2]: lost

BICD2 (mouse, recombinant) (from UniProt Q921C5) T319A/S320A/T321A, exponentially growing cells
binding against the reference (PLK1; exponentially growing cells): lost

BICD2 (mouse, recombinant) (from UniProt Q921C5) T319A/S320A/T321A, mitotic cells
binding against the reference (PLK1; mitotic cells): lost

GFP-BICD2 S102A (from UniProt Q921C5 1-820) (natural protein)
percent of U2OS cells with clustered mitochondria, BICD2 form expressed as GFP-BICD2 S102A-MTD [3]: 43%

GFP-BICD2 S102D (from UniProt Q921C5 1-820) (natural protein)
percent of U2OS cells with clustered mitochondria, BICD2 form expressed as GFP-BICD2 S102D-MTD [3]: 61%

GFP-BICD2 [1–575] (from UniProt Q921C5 1-575) (domain or fragment)
percent of U2OS cells with clustered mitochondria, BICD2 form expressed as GFP-BICD2 [1–575]-MTD [3]: 85%

GFP-BICD2 wild type (from UniProt Q921C5 1-820) (natural protein)
percent of U2OS cells with clustered mitochondria, BICD2 form expressed as GFP-BICD2 WT-MTD [3]: 50%

TwinStrep-BICD2 S102D (from UniProt Q921C5 1-820) (natural protein)
fold binding against wild-type BICD2 on phosphorylated BBD [4]: 12 fold
fold binding against wild-type BICD2 on unmodified BBD [4]: 400 times
